Results from article PMC7398979.

Experiments:
[1] = biological target: sulfur oxygenase reductase from Sulfurisphaera tokodaii (Sulfurisphaera tokodaii strain 7); experiment: cryo-EM structure; single particle analysis, 10 mg/mL in 20 mM Tris-HCl pH 8.0, 150 mM NaCl; sample partially purified (heat treatment, gel filtration); 200 kV Talos Arctica; octahedral symmetry imposed, 2.24 Å (C1: 2.73 Å)
[2] = biological target: sulfur oxygenase reductase from Sulfurisphaera tokodaii (Sulfurisphaera tokodaii strain 7); experiment: SEC; gel filtration on HiLoad 16/600 Superdex 200 pg; standards thyroglobulin (669 k), pyruvate kinase (237 k), ovalbumin (44 k), RNaseA (14 k); peak at 539 kDa
[3] = biological target: sulfur oxygenase reductase from Sulfurisphaera tokodaii (Sulfurisphaera tokodaii strain 7); experiment: crystal structure; sitting drop at 20 °C, 1.2 M ammonium sulfate, 100 mM MES-NaOH pH 6.1, 4% dioxane; space group I23, 8 monomers per asymmetric unit; 1.73 Å

Substance: sulfur oxygenase reductase from Sulfurisphaera tokodaii (enzyme)
- stoichiometry N [1]: 24
- stoichiometry N [2]: 15 to 16
- stoichiometry N [3]: 24
